This experiment concerns the target SARS-CoV-2 WT RBD protein (SARS-CoV-2 wild type, UniProt P0DTC2). The experiment is described as follows: ELISA. Background: An ELISA detects its analyte on a solid surface through an enzyme-linked reagent.

Here are results for one molecule from publication PMC10072977 (Biochemical and Biophysical Research Communications, 2023).

B1: rabbit monoclonal antibody (RmAb) 9H1 (antibody, V domains shown)
VH: QSVEESGGRLVTPGTPLTLTCTVSGFSLSRYAMSWVRQAPGKGLEWIGIIVDSGHTAYASWAKGRFTISRTSTTVDLKMTSLTTEDTATYFCARETGGGAFYVFEFWGPGTVVTVSS
VL: QVLTQTPSSVSAAVGGTVTINCQASEDIYDNLVWYQQKPGQPPKLLIYDASTLAFGVSSRFRGSGSGTHFTLTMRDVQCDDAATYYCQGEFSCSSGDCTAFGGGTEVVVK
For B1, the binding result is listed as “binds”.
